The record followed here is patent US20230407373A1 (priority 2020, published 2023).

This experiment has as its system HCoV-OC43 gRNA and sgRNA. The format is binding.

B1: G3BP2: host protein of the core SARS-CoV-2 RNA interactome (protein, UniProt Q9UN86 2-482, looked up)
Ras GTPase-activating …: VMEKPSPLLVGREFVRQYYTLLNKAPEYLHRFYGRNSSYVHGGVDASGKPQEAVYGQNDIHHKVLSLNFSECHTKIRHVDAHATLSDGVVVQVMGLLSNSGQPERKFMQTFVLAPEGSVPNKFYVHNDMFRYEDEVFGDSEPELDEESEDEVEEEQEERQPSPEPVQENANSGYYEAHPVTNGIEEPLEESSHEPEPEPESETKTEELKPQVEEKNLEELEEKSTTPPPAEPVSLPQEPPKAFSWASVTSKNLPPSGTVSSSGIPPHVKAPVSQPRVEAKPEVQSQPPRVREQRPRERPGFPPRGPRPGRGDMEQNDSDNRRIIRYPDSHQLFVGNLPHDIDENELKEFFMSFGNVVELRINTKGVGGKLPNFGFVVFDDSEPVQRILIAKPIMFRGEVRLNVEEKKTRAARERETRGGGDDRRDIRRNDRGPGGPRGIVGGGMMRDRDGRGPPPRGGMAQKLGSGRGTGQMEGRFTGQRR
For B1, the “background (unweighted spectral count, no-probe control)” value is recorded as 1; the “target (unweighted spectral count)” value was determined as 4; the “target (unweighted spectral count, OC43 Probe II capture)” value turned out to be 4; the “target (unweighted spectral count, OC43 Probe II)” value is reported as 9.
